{
  "source": "patent US20030175681A1",
  "target": "rhCMV (strain 68.1) US28 homolog(s): fractalkine-binding receptor protein expressed on rhCMV-infected rhesus dermal fibroblasts and on rhCMV virions",
  "assay": "homologous competition: unlabeled fractalkine displaces 125I-fractalkine from rhCMV-infected rhesus dermal fibroblasts, filter binding",
  "data": [
    {"substance": "fractalkine (from UniProt P78423 25-100) (ligand)", "values": [
      {"measurement": "IC50", "value": 0.044, "unit": "nM"}
    ]}
  ]
}
